Test results as given in patent US20240261333A1, “NOVEL TARGETS FOR ENHANCING ANTI-TUMOR IMMUNITY” (THE BROAD INSTITUTE, INC., priority 2021, published 2024).

T1: B3GNT2 (Homo sapiens, UniProt Q9NY97)
T1 construct: The respective ORFs of candidate genes [CD274 (NM_014143), MCL1 (NM_021960), JUNB (NM_002229), and B3GNT2 (NM_006577)] were synthesized; expressed in transfected cells; host or cells: A375 melanoma cells (lentiviral ORF overexpression)
T1 sequence (Q9NY97 1-397): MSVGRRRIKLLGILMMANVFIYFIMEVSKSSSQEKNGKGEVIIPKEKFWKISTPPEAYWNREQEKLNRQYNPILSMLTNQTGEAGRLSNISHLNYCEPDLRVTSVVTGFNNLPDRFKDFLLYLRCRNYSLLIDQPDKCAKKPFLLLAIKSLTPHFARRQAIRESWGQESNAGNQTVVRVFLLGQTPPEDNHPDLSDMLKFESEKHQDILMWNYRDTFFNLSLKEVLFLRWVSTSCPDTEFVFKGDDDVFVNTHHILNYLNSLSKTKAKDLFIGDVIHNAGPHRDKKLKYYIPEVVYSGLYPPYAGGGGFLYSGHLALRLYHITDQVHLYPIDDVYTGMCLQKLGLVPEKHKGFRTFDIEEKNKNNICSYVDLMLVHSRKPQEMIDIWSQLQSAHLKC

B1: PDIA4 (protein)
chain: VAGAEGPDEDSSNRENAIEDEEEEEEEDDDEEEDDLEVKEENGVLVLNDANFDNFVADKDTVLLEFYAPWCGHCKQFAPEYEKIANILKDKDPPIPVAKIDATSASVLASRFDVSGYPTIKILKKGQAVDYEGSRTQEEIVAKVREVSQPDWTPPPEVTLVLTKENFDEVVNDADIILVEFYAPWCGHCKKLAPEYEKAAKELSKRSPPIPLAKVDATAETDLAKRFDVSGYPTLKIFRKGRPYDYNGPREKYGIVDYMIEQSGPPSKEILTLKQVQEFLKDGDDVIIIGVFKGESDPAYQQYQDAANNLREDYKFHHTFSTEIAKFLKVSQGQLVVMQPEKFQSKYEPRSHMMDVQGSTQDSAIKDFVLKYALPLVGHRKVSNDAKRYTRRPLVVVYYSVDFSFDYRAATQFWRSKVLEVAKDFPEYTFAIADEEDYAGEVKDLGLSESGEDVNAAILDESGKKFAMEPEEFDSDTLREFVTAFKKGKLKPVIKSQPVPKNNKGPVKVVVGKTFDSIVMDPKKDVLIEFYAPWCGHCKQLEPVYNSLAKKYKGQKGLVIAKMDATANDVPSDRYKVEGFPTIYFAPSGDKKNPVKFEGGDRDLEHLSKFIEEHATKLSRTKEEL
B2: RCN1 (protein)
chain: KPTVRKERVVRPDSELGERPPEDNQSFQYDHEAFLGKEDSKTFDQLTPDESKERLGKIVDRIDNDGDGFVTTEELKTWIKRVQKRYIFDNVAKVWKDYDRDKDDKISWEEYKQATYGYYLGNPAEFHDSSDHHTFKKMLPRDERRFKAADLNGDLTATREEFTAFLHPEEFEHMKEIVVLETLEDIDKNGDGFVDQDEYIADMFSHEENGPEPDWVLSEREQFNEFRDLNKDGKLDKDEIRHWILPQDYDHAQAEARHLVYESDKNKDEKLTKEEILENWNMFVGSQATNYGEDLTKNHDEL
B3: PSMC2 (protein)
chain: PDYLGADQRKTKEDEKDDKPIRALDEGDIALLKTYGQSTYSRQIKQVEDDIQQLLKKINELTGIKESDTGLAPPALWDLAADKQTLQSEQPLQVARCTKIINADSEDPKYIINVKQFAKFVVDLSDQVAPTDIEEGMRVGVDRNKYQIHIPLPPKIDPTVTMMQVEEKPDVTYSDVGGCKEQIEKLREVVETPLLHPERFVNLGIEPPKGVLLFGPPGTGKTLCARAVANRTDACFIRVIGSELVQKYVGEGARMVRELFEMARTKKACLIFFDEIDAIGGARFDDGAGGDNEVQRTMLELINQLDGFDPRGNIKVLMATNRPDTLDPALMRPGRLDRKIEFSLPDLEGRTHIFKIHARSMSVERDIRFELLARLCPNSTGAEIRSVCTEAGMFAIRARRKIATEKDFLEAVNKVIKSYAKFSATPRYMTYN
B4: DNAJA3 (protein)
chain: GVSLTGTKHNPFICTASFHTSAPLAKEDYYQILGVPRNASQKEIKKAYYQLAKKYHPDTNKDDPKAKEKFSQLAEAYEVLSDEVKRKQYDAYGSAGFDPGASGSQHSYWKGGPTVDPEELFRKIFGEFSSSSFGDFQTVFDQPQEYFMELTFNQAAKGVNKEFTVNIMDTCERCNGKGNEPGTKVQHCHYCGGSGMETINTGPFVMRSTCRRCGGRGSIIISPCVVCRGAGQAKQKKRVMIPVPAGVEDGQTVRMPVGKREIFITFRVQKSPVFRRDGADIHSDLFISIAQALLGGTARAQGLYETINVTIPPGTQTDQKIRMGGKGIPRINSYGYGDHYIHIKIRVPKRLTSRQQSLILSYAEDETDVEGTVNGVTLTSSGKRSTGN
B5: ATAD3A (protein)
chain: SWLFGINKGPKGEGAGPPPPLPPAQPGAEGGGDRGLGDRPAPKDKWSNFDPTGLERAAKAARELEHSRYAKDALNLAQMQEQTLQLEQQSKLKEYEAAVEQLKSEQIRAQAEERRKTLSEETRQHQARAQYQDKLARQRYEDQLKQQQLLNEENLRKQEESVQKQEAMRRATVEREMELRHKNEMLRVEAEARARAKAERENADIIREQIRLKAAEHRQTVLESIRTAGTLFGEGFRAFVTDWDKVTATVAGLTLLAVGVYSAKNATLVAGRFIEARLGKPSLVRETSRITVLEALRHPIQVSRRLLSRPQDALEGVVLSPSLEARVRDIAIATRNTKKNRSLYRNILMYGPPGTGKTLFAKKLALHSGMDYAIMTGGDVAPMGREGVTAMHKLFDWANTSRRGLLLFVDEADAFLRKRATEKISEDLRATLNAFLYRTGQHSNKFMLVLASNQPEQFDWAINDRINEMVHFDLPGQEERERLVRMYFDKYVLKPATEGKQRLKLAQFDYGRKCSEVARLTEGMSGREIAQLAVSWQATAYASEDGVLTEAMMDTRVQDAVQQHQQKMCWLKAEGPGRGDEPSPS
B6: UBTF (protein)
chain: MNGEADCPTDLEMAAPKGQDRWSQEDMLTLLECMKNNLPSNDSSKFKTTESHMDWEKVAFKDFSGDMCKLKWVEISNEVRKFRTLTELILDAQEHVKNPYKGKKLKKHPDFPKKPLTPYFRFFMEKRAKYAKLHPEMSNLDLTKILSKKYKELPEKKKMKYIQDFQREKQEFERNLARFREDHPDLIQNAKKSDIPEKPKTPQQLWYTHEKKVYLKVRPDEIMRDYIQKHPELNISEEGITKSTLTKAERQLKDKFDGRPTKPPPNSYSLYCAELMANMKDVPSTERMVLCSQQWKLLSQKEKDAYHKKCDQKKKDYEVELLRFLESLPEEEQQRVLGEEKMLNINKKQATSPASKKPAQEGGKGGSEKPKRPVSAMFIFSEEKRRQLQEERPELSESELTRLLARMWNDLSEKKKAKYKAREAALKAQSERKPGGEREERGKLPESPKRAEEIWQQSVIGDYLARFKNDRVKALKAMEMTWNNMEKKEKLMWIKKAAEDQKRYERELSEMRAPPAATNSSKKMKFQGEPKKPPMNGYQKFSQELLSNGELNHLPLKERMVEIGSRWQRISQSQKEHYKKLAEEQQKQYKVHLDLWVKSLSPQDRAAYKEYISNKRKSMTKLRGPNPKSSRTTLQSKSESEEDDEEDEDDEDEDEEEEDDENGDSSEDGGDSSESSSEDESEDGDENEEDDEDEDDDEDDDEDEDNESEGSSSSSSSSGDSSDSDSN
B7: TUBA1C (protein, UniProt Q9BQE3 1-449, looked up)
Tubulin alpha-1C chain: MRECISIHVGQAGVQIGNACWELYCLEHGIQPDGQMPSDKTIGGGDDSFNTFFSETGAGKHVPRAVFVDLEPTVIDEVRTGTYRQLFHPEQLITGKEDAANNYARGHYTIGKEIIDLVLDRIRKLADQCTGLQGFLVFHSFGGGTGSGFTSLLMERLSVDYGKKSKLEFSIYPAPQVSTAVVEPYNSILTTHTTLEHSDCAFMVDNEAIYDICRRNLDIERPTYTNLNRLISQIVSSITASLRFDGALNVDLTEFQTNLVPYPRIHFPLATYAPVISAEKAYHEQLTVAEITNACFEPANQMVKCDPRHGKYMACCLLYRGDVVPKDVNAAIATIKTKRTIQFVDWCPTGFKVGINYQPPTVVPGGDLAKVQRAVCMLSNTTAVAEAWARLDHKFDLMYAKRAFVHWYVGEGMEEGEFSEAREDMAALEKDYEEVGADSADGEDEGEEY
B8: PGAM5 (protein)
chain: MAFRQALQLAACGLAGGSAAVLFSAVAVGKPRAGGDAEPRPAEPPAWAGGARPGPGVWDPNWDRREPLSLINVRKRNVESGEEELASKLDHYKAKATRHIFLIRHSQYHVDGSLEKDRTLTPLGREQAELTGLRLASLGLKFNKIVHSSMTRAIETTDIISRHLPGVCKVSTDLLREGAPIEPDPPVSHWKPEAVQYYEDGARIEAAFRNYIHRADARQEEDSYEIFICHANVIRYIVCRALQFPPEGWLRLSLNNGSITHLVIRPNGRVALRTLGDTGFMPPDKITRS
B9: IFI16 (protein)
chain: MGKKYKNIVLLKGLEVINDYHFRMVKSLLSNDLKLNLKMREEYDKIQIADLMEEKFRGDAGLGKLIKIFEDIPTLEDLAETLKKEKLKVKGPALSRKRKKEVDATSPAPSTSSTVKTEGAEATPGAQKRKKSTKEKAGPKGSKVSEEQTQPPSPAGAGMSTAMGRSPSPKTSLSAPPNSSSTENPKTVAKCQVTPRRNVLQKRPVIVKVLSTTKPFEYETPEMEKKIMFHATVATQTQFFHVKVLNTSLKEKFNGKKIIIISDYLEYDSLLEVNEESTVSEAGPNQTFEVPNKIINRAKETLKIDILHKQASGNIVYGVFMLHKKTVNQKTTIYEIQDDRGKMDVVGTGQCHNIPCEEGDKLQLFCFRLRKKNQMSKLISEMHSFIQIKKKTNPRNNDPKSMKLPQEQRQLPYPSEASTTFPESHLRTPQMPPTTPSSSFFTKKSEDTISKMNDFMRMQILKEGSHFPGPFMTSIGPAESHPHTPQMPPSTPSSSFLTTLKPRLKTEPEEVSIEDSAQSDLKEVMVLNATESFVYEPKEQKKMFHATVATENEVFRVKVFNIDLKEKFTPKKIIAIANYVCRNGFLEVYPFTLVADVNADRNMEIPKGLIRSASVTPKINQLCSQTKGSFVNGVFEVHKKNVRGEFTYYEIQDNTGKMEVVVHGRLTTINCEEGDKLKLTCFELAPKSGNTGELRSVIHSHIKVIKTRKNKKDILNPDSSMETSPDFFF

Target: T1, B3GNT2
Assay: Co-IP of FLAG-tagged B3GNT2 followed by mass spectrometry
Format: cell-based
Design: C-term IgG / C-term flag: unit not given here
Conditions: Co-IP with FLAG antibody, C-terminally FLAG-tagged B3GNT2; mass spectrometry count, unit not given
Summary of the method: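 FLAG-tagged B3GNT2 immunoprecipitated from cell lysate (HEPES, 1% Triton X-100, 150 mM NaCl) with anti-FLAG versus […], overnight at 4° C, then captured on Protein A/G magnetic beads for 4 h. Two biological replicates per condition. Peptides fractionated and analyzed by nano-LC on an Orbitrap Elite in data-dependent mode.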

Row | C-term flag | Molecule
1 | 9 | B1
2 | 9 | B2
3 | 0 | B3
4 | 2 | B4
5 | 9 | B5
6 | 2 | B6
7 | 63 | B7
8 | 5 | B8
9 | 2 | B9

Same assay, conditions: Co-IP with FLAG antibody, N-terminally FLAG-tagged B3GNT2; mass spectrometry count, unit not given

Row | N-term FLAG | Molecule
10 | 0 | B1
11 | 0 | B2
12 | 2 | B3
13 | 0 | B4
14 | 0 | B5
15 | 0 | B6
16 | 76 | B7
17 | 4 | B8
18 | 0 | B9

Same assay, conditions: Co-IP with IgG control antibody, C-terminally FLAG-tagged B3GNT2; mass spectrometry count, unit not given

Row | C-term IgG | Molecule
19 | 0 | B1
20 | 0 | B2
21 | 0 | B3
22 | 0 | B4
23 | 0 | B5
24 | 0 | B6
25 | 14 | B7
26 | 0 | B8
27 | 0 | B9

Same assay, conditions: Co-IP with IgG control antibody, N-terminally FLAG-tagged B3GNT2; mass spectrometry count, unit not given

Row | N-term IgG | Molecule
28 | 0 | B1
29 | 0 | B2
30 | 0 | B3
31 | 0 | B4
32 | 0 | B5
33 | 0 | B6
34 | 8 | B7
35 | 0 | B8
36 | 0 | B9
